Assay [1] has as its system human umbilical vein endothelial cells (HUVECs). As to the kind of experiment: HUVEC migration assay (modified Boyden chamber). The assay is classed as cell-based. As to conditions: 50 nM TyrRS molecule or 0.5 nM VEGF165, 6 hours. The procedure:
In contrast, α-chemokines lacking the ELR motif act as angiostatic factors (id.). In order to evaluate the angiogenic activity of TyrRS, which contains the ELR motif, human full-length TyrRS and human mini TyrRS were first examined for their ability to induce endothelial cell migration. Such angiogenic assays were performed using human umbilical vein endothelial cells (HUVECs) (Clonetics, Walkersville, Md.). Cells were maintained in EGM-2® BULLETKIT® medium (Clonetics) in an atmosphere of 6% CO2 at 37° C. according to the supplier's instructions.
Cell migration assays were performed using the modified Boyden chamber (6.5 mm Transwells) with polycarbonate membranes (8.0 μm pore size) (Costar Corp., Cambridge, Mass.) (Masood et al., 1999, Blood 93:1038-44). Wells were coated overnight with 25 μg/mL human fibronectin (Biosource International, Camarillo, Calif.) in PBS and then allowed to air-dry. HUVECs were suspended in Dulbecco's modified Eagle's medium (DMEM) (Gibco-BRL, Gaithersburg, Md.) containing 0.1% BSA (Sigma) and 2×10^5 cells per well were added to the upper chamber. The chemotactic stimulus (50 nM of a given TyrRS molecule or 0.5 nM of human vascular endothelial growth factor-165 (VEGF165) (Biosource International, Camarillo, Calif.)) was placed in the lower chamber, and the cells were allowed to migrate for 6 hours at 37° C. in a 6% CO2 incubator. After incubation, non-migrant cells were removed from the upper face of the Transwell membrane with a cotton swab and migrant cells, those attached to the lower face, were fixed in methanol and visualized with the HEMACOLOR® stain set (EM Diagnostic Systems, Gibbstown, N.J.). Migrating cells were counted in high-power fields (HPFs). HUVECs were suspended in media with the inhibitor for 30 minutes before placement in the chamber. Each determination shown in FIG. 16 represents the average of nine HPF measurements.

A further assay deals with MPs. The assay can be described thus: MP chemotaxis assay (ChemoTX microchemotaxis chamber). It counts as cell-based, human. Particulars: sample proteins 1 nM, 3 hours. On the procedure:
Cells for the various cytokine assays described were prepared from acid citrate dextrose-treated blood of normal healthy volunteers. Human PMNs were isolated from the blood by centrifugation (700×g) over Histopaque 1077 and 1119 (Sigma). […] This procedure was repeated twice. Human MPs were isolated by centrifugation on Histopaque 1077 (Sigma). The mononuclear fraction was obtained, washed twice in Hanks' balanced salt solution, resuspended in RPMI-1640 medium (Sigma) containing 10% heat-inactivated fetal bovine serum (Sigma), plated in tissue culture flasks, and incubated in a 6% CO2 incubator at 37° C. for 1-2 hours (Kumagai et al., 1979, J. Immunol. Methods 29:17-25). Nonadherent cells were removed by washing the flasks three times with Hanks' balanced salt solution, and adherent cells were harvested by incubation with calcium-magnesium free phosphate-buffered saline containing 2 mM EDTA for 15 minutes at 4° C., followed by extensive washing.
MP chemotaxis assays were performed in a ChemoTX microchemotaxis chamber (Neuro Probe, Gaithersburg, Md.) containing polycarbonate filters (5 μm pores) with polyvinylpyrrolidone (PVP). MPs were suspended in RPMI-1640 medium containing 1% heat-inactivated fetal bovine serum, and 10^4 cells were added to the upper chamber. Sample proteins (1 nM) were added to the lower compartment of chemotaxis chambers, and the chambers were incubated for 3 hours. After incubation, nonmigrating cells were removed, membranes were fixed in methanol, and migrating cells were visualized with the HEMACOLOR™ stain set (EM Diagnostic Systems, Gibbstown, N.J.). Migrating cells were counted in high-power fields (HPFs). Each determination shown in FIG. 2 represents the average of nine HPF measurements.

B1: mini TyrRS: truncated TyrRS, residues 1-364 of full-length TyrRS, amino-terminal catalytic domain (protein)
chain: MGDAPSPEEKLHLITRNLQEVLGEEKLKEILKERELKIYWGTATTGKPHVAYFVPMSKIADFLKAGCEVTILFADLHAYLDNMKAPWELLELRVSYYENVIKAMLESIGVPLEKLKFIKGTDYQLSKEYTLDVYRLSSVVTQHDSKKAGAEVVKQVEHPLLSGLLYPGLQALDEEYLKVDAQFGGIDQRKIFTFAEKYLPALGYSKRVHLMNPMVPGLTGSKMSSSEEESKIDLLDRKEDVKKKLKKAFCEPGNVENNGVLSFIKHVLFPLKSEFVILRDEKWGGNKTYTAYVDLEKDFAAEVVHPGDLKNSVEVALNKLLDPIREKFNTPALKKLASAAYPDPSKQKPMAKGPAKNSEPEEVILEHHHHHH
modifications: His6 tag; Human mini TyrRS in pET20B
notes: truncated TyrRS, residues 1-364 of full-length TyrRS, amino-terminal catalytic domain
On to B1, for which the HUVEC chemotaxis result in assay [1] is listed as “stimulated induction of HUVEC chemotaxis”. Moreover, in the assay with MPs, the “MP chemotaxis (MP migration)” value is reported as “did not induce MP migration”.

The values above are taken from patent US9205136B2, “Human aminoacyl-tRNA synthetase polypeptides useful for the regulation of angiogenesis” (THE SCRIPPS RESEARCH INSTITUTE, priority 2000, dated 2015).
